# Test results taken from PMC3253920 (Biochimica et Biophysica Acta, 2011).
# Target: the molecule itself
# Experiment: crystal structure
protein,measurement,value
"native rat liver glycine N-methyltransferase (enzyme, UniProt P13255 2-293, looked up, acetylated N-terminal valine (Val1)) VDSVYRTRSLGVAAEGIPDQYADGEAARVWQLYIGDTRSRTAEYKAWLLGLLRQHGCHRVLDVACGTGVDSIMLVEEGFSVTSVDASDKMLKYALKERWNRRKEPAFDKWVIEEANWLTLDKDVPAGDGFDAVICLGNSFAHLPDSKGDQSEHRLALKNIASMVRPGGLLVIDHRNYDYILSTGCAPPGKNIYYKSDLTKDITTSVLTVNNKAHMVTLDYTVQVPGAGRDGAPGFSKFRLSYYPHCLASFTELVQEAFGGRCQHSVLGDFKPYRPGQAYVPCYFIHVLKKTG",stoichiometry N,4
